Laboratory results taken from paper PMC11921375, “Phenanthrene degradation by a flavoprotein monooxygenase from Phanerodontia chrysosporium” (Applied and Environmental Microbiology, 2025).
Blank lines part the entries; values can stand above or below the molecule they belong to.

Key:
[1] = tested on: T1, FPMO11 (flavoprotein monooxygenase 11); experiment: NAD(P)H oxidation at […] nm, initial velocity; assay type: biochemical, Phanerodontia chrysosporium; conditions: apparent, 50 mM HEPES-NaOH pH 7.0, 30°C
T1 construct: full-length, C-terminal 6xHis, pET21a, E. coli BL21; FAD flavoprotein

[2] = tested on: T2, IDD2 (intradiol dioxygenase 2); experiment: O2 consumption, Clark electrode; Michaelis-Menten fit; assay type: biochemical, Phanerodontia chrysosporium; conditions: apparent; 50 mM Tris-HCl pH 8.0, air-saturated, superoxide dismutase added
T2 construct: recombinant, E. coli

[3] = tested on: T3, IDD1 (intradiol dioxygenase 1); experiment: as above; assay type: biochemical, Phanerodontia chrysosporium; conditions: apparent; 50 mM Tris-HCl pH 8.0, air-saturated, superoxide dismutase added
T3 construct: recombinant, E. coli

[4] = target: T4, NahG (salicylate 1-monooxygenase) (Pseudomonas putida, UniProt P23262); experiment: NAD(P)H oxidation at […] nm, initial velocity; assay type: biochemical; conditions: apparent; co-substrate NADH varied, aromatic substrate not stated; 50 mM HEPES pH 8.0, 30°C
T4 construct: full-length synthetic gene, C-terminal 6xHis, pET21a, E. coli BL21
T4 sequence (P23262 2-434): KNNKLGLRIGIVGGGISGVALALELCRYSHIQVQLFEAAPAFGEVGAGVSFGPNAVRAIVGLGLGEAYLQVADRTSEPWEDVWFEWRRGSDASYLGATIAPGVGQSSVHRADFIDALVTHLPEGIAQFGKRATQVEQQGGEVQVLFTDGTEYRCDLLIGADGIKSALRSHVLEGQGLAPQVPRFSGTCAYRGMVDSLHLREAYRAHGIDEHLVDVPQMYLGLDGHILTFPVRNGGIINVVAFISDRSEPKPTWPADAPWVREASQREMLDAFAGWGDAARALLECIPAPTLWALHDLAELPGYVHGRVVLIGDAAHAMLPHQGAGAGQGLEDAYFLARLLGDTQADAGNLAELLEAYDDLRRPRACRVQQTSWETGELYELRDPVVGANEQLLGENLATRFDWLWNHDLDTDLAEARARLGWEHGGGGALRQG

purified protein [5] = substrate: NC(=O)C1=CN([C@@H]2O[C@H](COP(=O)(O)OP(=O)(O)OC[C@H]3O[C@@H](n4cnc5c(N)ncnc54)[C@H](OP(=O)(O)O)[C@@H]3O)[C@@H](O)[C@H]2O)C=CC1; experiment: purified protein; assay type: biochemical, Pseudomonas putida; conditions: apparent, co-substrate NADPH varied, aromatic substrate not stated, 50 mM HEPES pH 8.0, 30°C, varied: cofactor
purified protein [6] = substrate: O=C(O)c1ccc(O)cc1O; experiment: purified protein; assay type: biochemical, Pseudomonas putida; conditions: apparent, NAD(P)H co-substrate (NADH in results, NADPH in methods), 50 mM HEPES pH 8.0, 30°C
purified protein [7] = substrate: O=C(O)c1cccc(O)c1O; experiment: purified protein; assay type: biochemical, Pseudomonas putida; conditions: apparent, NAD(P)H co-substrate (NADH in results, NADPH in methods), 50 mM HEPES pH 8.0, 30°C
purified protein [8] = substrate: O=C(O)c1ccc(Cl)cc1O; experiment: purified protein; assay type: biochemical, Pseudomonas putida; conditions: apparent, NAD(P)H co-substrate (NADH in results, NADPH in methods), 50 mM HEPES pH 8.0, 30°C
purified protein [9] = substrate: O=C(O)c1cc(O)ccc1O; experiment: purified protein; conditions: apparent, NAD(P)H co-substrate (NADH in results, NADPH in methods), 50 mM HEPES pH 8.0, 30°C

Km ([1]; NADPH co-substrate): 48 ± 45 µM
Molecule: O=C(O)c1cc(O)ccc1O [GA]

Km ([1]; NADPH co-substrate): 82 ± 9.7 µM
Molecule: O=C(O)c1ccc(O)cc1O [2,4DHB]

Molecule: Oc1ccc2ccccc2c1O [1,2DHN]
Km [2]: 520 ± 180 µM
Km [3]: 480 ± 18 µM

Km ([1]; NADPH co-substrate): 30 ± 34 µM
Molecule: O=C(O)c1ccccc1O [SA]

Molecule: O=C(O)c1ccc(Cl)cc1O [4CSA]
Km ([1]; NADPH co-substrate): 120 ± 28 µM

Km ([1]; co-substrate NADH varied, aromatic substrate not stated): 170 ± 60 µM
Km [4]: 27 ± 10 µM
Molecule: NC(=O)C1=CN([C@@H]2O[C@H](COP(=O)(O)OP(=O)(O)OC[C@H]3O[C@@H](n4cnc5c(N)ncnc54)[C@H](O)[C@@H]3O)[C@@H](O)[C@H]2O)C=CC1 [NADH]

Km ([1]; NADPH co-substrate): 67 ± 1.8 µM
Molecule: O=C(O)c1cccc(O)c1O [2,3DHB]

Km ([1]; NADPH co-substrate): 290 ± 67 µM
Molecule: O=C(O)c1cccc(-c2ccccc2)c1O [2H3PB]

Km ([1]; NADPH co-substrate): 110 ± 25 µM
Molecule: O=C(O)c1c(O)ccc2ccccc12 [2H1N]

Km ([1]; NADPH co-substrate): 100 ± 15 µM
Molecule: O=C(O)c1ccc2ccccc2c1O [1H2N]

Km ([1]; NADPH co-substrate): 320 ± 84 µM
Molecule: O=C(O)c1c(O)cccc1-c1ccccc1 [2H6PB]

Km ([1]; co-substrate NADPH varied, aromatic substrate not stated): 150 ± 37 µM
Molecule: NC(=O)C1=CN([C@@H]2O[C@H](COP(=O)(O)OP(=O)(O)OC[C@H]3O[C@@H](n4cnc5c(N)ncnc54)[C@H](OP(=O)(O)O)[C@@H]3O)[C@@H](O)[C@H]2O)C=CC1 [NADPH]

B1: NahG (salicylate 1-monooxygenase) (Pseudomonas putida) (protein)
chain: KNNKLGLRIGIVGGGISGVALALELCRYSHIQVQLFEAAPAFGEVGAGVSFGPNAVRAIVGLGLGEAYLQVADRTSEPWEDVWFEWRRGSDASYLGATIAPGVGQSSVHRADFIDALVTHLPEGIAQFGKRATQVEQQGGEVQVLFTDGTEYRCDLLIGADGIKSALRSHVLEGQGLAPQVPRFSGTCAYRGMVDSLHLREAYRAHGIDEHLVDVPQMYLGLDGHILTFPVRNGGIINVVAFISDRSEPKPTWPADAPWVREASQREMLDAFAGWGDAARALLECIPAPTLWALHDLAELPGYVHGRVVLIGDAAHAMLPHQGAGAGQGLEDAYFLARLLGDTQADAGNLAELLEAYDDLRRPRACRVQQTSWETGELYELRDPVVGANEQLLGENLATRFDWLWNHDLDTDLAEARARLGWEHGGGGALRQG
notes: full-length synthetic gene, C-terminal 6xHis, pET21a, E. coli BL21
Km (purified protein [5]): 69 ± 17 µM
kcat (purified protein [5]): 1.33 ± 0.583 s⁻¹
kcat/Km (purified protein [5]): 20000 M⁻¹ s⁻¹
Km (purified protein [6]): 70 ± 15 µM
kcat (purified protein [6]): 5.17 ± 0.467 s⁻¹
kcat/Km (purified protein [6]): 73300 M⁻¹ s⁻¹
Km (purified protein [7]): 120 ± 15 µM
kcat (purified protein [7]): 5.5 ± 0.567 s⁻¹
kcat/Km (purified protein [7]): 45000 M⁻¹ s⁻¹
Km (purified protein [8]): 51 ± 19 µM
kcat (purified protein [8]): 0.917 ± 0.4 s⁻¹
kcat/Km (purified protein [8]): 18300 M⁻¹ s⁻¹
Km (purified protein [9]): 110 ± 30 µM
kcat (purified protein [9]): 7 s⁻¹
kcat/Km (purified protein [9]): 61700 M⁻¹ s⁻¹
